Holding throughout (format): cell-based
For assay [1], the system named is target antigen-expressing cell line. Briefly: Jurkat NFAT-GFP (JNG) assay: induction of NFAT promoter driven GFP expression. Conditions: SAR-expressing JNG cells co-cultured with cell lines expressing their target antigen(s). As for the experimental part: Induction ofNFAT promoter driven GFP expression. […] Cellular supernatant is collected and assayed for the induction of cytokines (e.g., IL2).
(§1) Cellular supernatant is collected and assayed for the induction of cytokines (e.g., IL2).
(§2) JNG (Jurkat cells expressing EGFP under an NFAT promoter) were infected with lentiviral vectors encoding different single chain and multi-chain SARs by spinfection in the presence of 8 µg/ml of Polybrene® (Sigma, Catalog no. H9268). The Jurkat-NFAT-GFP cells are engineered in such a way that the IL-2 promoter, which carries NFAT binding sites, is cloned upstream of the GFP gene. These cells have been used to study signaling via TCR and CAR. The different SARs were stably expressed in Jurkat NFAT-GFP cells by lentiviral mediated gene transfer, followed by selection with puromycin or blasticidin. No drug selection was used in case the construct lacked an antibiotic resistance gene. The SAR-expressing Jurkat-NFAT-GFP cells were cocultured with the target cells at E:T ratio of approximately 1:2 for approximately 4 hours to 18 hours. When the interaction between SIRs and their target antigen results in activation of the NFAT pathway, GFP expression is induced. […] GFP expression was monitored by FACS analysis. The Jurkat-NFAT-GFP (parental) cells were used as control. The structure of different constructs can be determined based on their names. […] The sequence of the other constructs in the table can be similarly determined from their names and by referring to the different Tables of this disclosure that provide the names and SEQ ID NO of the different modules. Alternatively, the composition and modular architecture of the different SAR constructs can be determined from their sequences by bioinformatics tools, including using nucleic acid and amino acids homology searches. A SAR is considered positive in the assay in case the SAR expressing Jurkat-NFAT-GFP cells show greater % GFP positive cells when cultured with the target cell line as compared to parental Jurkat-NFAT-GFP cells. […] In general, the number +/-, +, 2+, 3+, 4+, 5+ refer to approximately 5%, 10%, 20%, 30%, 40% and 50% GFP positive cells. The % of GFP induction in the above assay is dependent not only the relative strength of the SAR but also, among other factors, on the relative level of expression of the SAR in the JNG cells and the relative level of expression of the target antigen in the target cell line. To control for the difference in gene transduction efficiency of the different SAR constructs, the experiment was conducted with JNG cells transduced with SAR constructs co-expressing a drug resistance gene (e.g., puromycin or PAC) followed by drug selection to generate a stable population of SAR-expressing cells. It is to be noted that the drug resistance gene (e.g., PAC) in the SAR constructs is optional and in vivo studies were conducted with SAR constructs lacking the PAC gene.

The test system of another assay is RAJI cells. In words: JNG assay, co-culture with RAJI cells. As to conditions: for GFP induction / activity: co-culture with RAJI cells; for NFAT-GFP ASSAY: Raji: JNG cells expressing construct, co-culture with Raji. The gist of the method:
(§3)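 Read-out is NFAT-driven GFP measured by flow cytometry after ~4–18 h co-culture of SAR-expressing JNG cells with target cells (E:T about 1:2). SARs were introduced by lentiviral spinfection and selected with puromycin or blasticidin when possible; scores (+/- to 5+ ≈ 5–50% GFP+) are relative to parental JNG cells.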

The subject of a further assay is RAJI-CD19-KO cells. In words: JNG assay, co-culture with RAJI-CD19-KO cells. Conditions: co-culture with RAJI-CD19-KO cells. An outline of the steps: as §3
A further assay has as its system SKOV-3 cells. Briefly: JNG assay, co-culture with SKOV-3 cells. Conditions: for NFAT-GFP ASSAY: SKOV-3: co-culture with SKOV-3. As for the experimental part: as §1, §2
The test system of a further assay is Nalm6 cells. In words: JNG assay, co-culture with Nalm6 cells. Conditions: co-culture with Nalm6 cells. The gist of the method:
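Read-out is % GFP-positive cells by flow cytometry after ~4–18 h co-culture (E:T ≈1:2) of target lines with SAR-transduced, puromycin/blasticidin-selected JNG cells. Grades +/-, +, 2+…5+ correspond to approximately 5%, 10%, 20%, 30%, 40%, 50% GFP+ over parental JNG controls.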

B1: CD8SP-BCMA-FHVH-93-G4S-CD19-MOR0028-scFv-hCD8TM-BBZ-T2A-PAC (protein)
chain: MALPVTALLLPLALLLHAARPACEVQLLESGGGLIQPGGSLRLSCAASGFTFSSHAMTWVRQAPGKGLEWVSAISGSGDYTHYADSVKGRFTISRDNSKNTVYLQMNSLRAEDSAVYYCAKDEDGGSLLGHRGQGTLVTVSSGTGGGGSGGGGSGGGGSEFINIYNAEPANPSEKNSPEFDIVMTQSPATLSLSPGERATLSCRSSKSLQNVNGNTYLYWFQQKPGQSPQLLIYRMSNLNSGVPDRFSGSGSGTEFTLTISSLEPEDFAVYYCMQHLEYPITFGAGTKLEIKGGGGSGGGGSGGGGSEVQLVESGGGLVKPGGSLKLSCAASGYTFTSYVMHWVRQAPGKGLEWIGYINPYNDGTKYNEKFQGRVTISSDKSISTAYMELSSLRSEDTAMYYCARGTYYYGTRVFDYWGQGTLVTVSSTRTTTPAPRPPTPAPTIASQPLSLRPEACRPAAGGAVHTRGLDFACDIYIWAPLAGTCGVLLLSLVITLYCKRGRKKLLYIFKQPFMRPVQTTQEEDGCSCRFPEEEEGGCELRVKFSRSADAPAYQQGQNQLYNELNLGRREEYDVLDKRRGRDPEMGGKPRRKNPQEGLYNELQKDKMAEAYSEIGMKGERRRGKGHDGLYQGLSTATKDTYDALHMQALPPRSSGSGEGRGSLLTCGDVEENPGPHMTEYKPTVRLATRDDVPRAVRTLAAAFADYPATRHTVDPDRHIERVTELQELFLTRVGLDIGKVWVADDGAAVAVWTTPESVEAGAVFAEIGPRMAELSGSRLAAQQQMEGLLAPHRPKEPAWFLATVGVSPDHQGKGLGSAVVLPGVEAAERAGVPAFLETSAPRNLPFYERLGFTVTADVEVPEGPRTWCMTRKPGA
B1: in assay [1], the “GFP induction / activity in JNG assay” value is on record as “effective GFP induction”. For the same molecule, the “GFP induction / activity” value with RAJI cells and in the assay on RAJI-CD19-KO cells was “effective GFP induction” each time.

B2: 22195 (protein)
chain: MALPVTALLLPLALLLHAARPDIQMTQSPSSLSASVGDRVTITCKASDHINNWLAWYQQKPGQAPKLLIYGATTLETGVPSRFSGSGSGTDYTLTISSLQPEDFATYYCQQSWNTPWTFGQGTKLEIKRLEDLKNVFPPEVAVFEPSEAEISHTQKATLVCLATGFYPDHVELSWWVNGKEVHSGVCTDPQPLKEQPALNDSRYCLSSRLRVSATFWQNPRNHFRCQVQFYGLSENDEWTQDRAKPVTQIVSAEAWGRADCGFTSESYQQGVLSATILYEILLGKATLYAVLVSALVLMAMVKRKDSRGRAKRSGSGATNFSLLKQAGDVEENPGPTSATMDWIWRILFLVGAATGAHSGPGSDLGIKLLFAAAKGQDDEVRILLAAGADVNAKDFEGYTPLHVAAYDGHLEIVEVLLKAGADVNAKDSQGRTPLHEAAYSGHLEIVEVLLKAGADVNAQDDAGETPADLAAAWGHEDIAEVLQKGSGGGGSGGGGSGGGGSFEQVQLQQPGAELVKPGASVKMSCKASGYAFSSYWINWMKQKPGQGLEWIGQIYPGDGDTNYNGKFKGRATLTADTSSSTAYMQLSSLTSEDSAVYFCARSITTVVGCAMDYWGQGTSVTVSSTRIQNPDPAVYQLRDSKSSDKSVCLFTDFDSQTNVSQSKDSDVYITDKCVLDMRSMDFKSNSAVAWSNKSDFACANAFNNSIIPEDTFFPSPESSCDVKLVEKSFETDTNLNFQNLSVIGFRILLLKVAGFNLLMTLRLWSSRAKRSGSGVKQTLNFDLLKLAGDVESNPGPSRGHMTEYKPTVRLATRDDVPRAVRTLAAAFADYPATRHTVDPDRHIERVTELQELFLTRVGLDIGKVWVADDGAAVAVWTTPESVEAGAVFAEIGPRMAELSGSRLAAQQQMEGLLAPHRPKEPAWFLATVGVSPDHQGKGLGSAVVLPGVEAAERAGVPAFLETSAPRNLPFYERLGFTVTADVEVPEGPRTWCMTRKPGA
In the case of B2, the “NFAT-GFP ASSAY: Raji” value with RAJI cells was 4+ (refer to approximately 5%, 10%, 20%, 30%, 40% and 50% GFP positive cells). Further, the “NFAT-GFP ASSAY: SKOV-3” value with SKOV-3 cells is 4+ (refer to approximately 5%, 10%, 20%, 30%, 40% and 50% GFP positive cells).

B3: 22197 (protein)
chain: B2 chain
For the molecule B3, the “NFAT-GFP ASSAY: Raji” value in the assay on RAJI cells was 2+ (refer to approximately 5%, 10%, 20%, 30%, 40% and 50% GFP positive cells). Besides, in the assay on SKOV-3 cells, the “NFAT-GFP ASSAY: SKOV-3” value is 5+ (refer to approximately 5%, 10%, 20%, 30%, 40% and 50% GFP positive cells).

B4: SEQ ID NO: 22177: trispecific SAR construct targeting CD19 and CD20 and coexpressing the ligand binding domain of NKG2D (protein)
chain: MALPVTALLLPLALLLHAARPLFNQEVQIPLTESYCGPCPKNWICYKNNCYQFFDESKNWYESQASCMSQNASLLKVYSKEDQDLLKLVKSYHWMGLVHIPTNGSWQWEDGSILSPNLLTIIEMQKGDCALYASSFKGYIENCSTPNTYICMQRTVGGGGSGGGGSGGGGSDLFNQEVQIPLTESYCGPCPKNWICYKNNCYQFFDESKNWYESQASCMSQNASLLKVYSKEDQDLLKLVKSYHWMGLVHIPTNGSWQWEDGSILSPNLLTIIEMQKGDCALYASSFKGYIENCSTPNTYICMQRTVGTGGGGSGGGGSGGGGSEFDIQMTQSPSSLSASVGDRVTITCKASDHINNWLAWYQQKPGQAPKLLIYGATTLETGVPSRFSGSGSGTDYTLTISSLQPEDFATYYCQQSWNTPWTFGQGTKLEIKRLEDLKNVFPPEVAVFEPSKAEIAHTQKATLVCLATGFYPDHVELSWWVNGKEVHSGVCTDPQPLKEQPALNDSRYCLSSRLRVSATFWQNPRNHFRCQVQFYGLSENDEWTQDRAKPVTQIVSAEAWGRADCGITSASYHQGVLSATILYEILLGKATLYAVLVSALVLMAMVKRKDSRGRAKRSGSGATNFSLLKQAGDVEENPGPTSATMDWIWRILFLVGAATGAHSGPQVQLQESGGGLAQAGGSLRLSCAASGRTFSMGWFRQAPGKEREFVAAITYSGGSPYYASSVRGRFTISRDNAKNTVYLQMNSLKPEDTAVYYCAANPTYGSDWNAENWGQGTQVTVSSGSGGGGSGGGGSGGGGSFEQVQLQQPGAELVKPGASVKMSCKASGYAFSSYWINWMKQKPGQGLEWIGQIYPGDGDTNYNGKFKGRATLTADTSSSTAYMQLSSLTSEDSAVYFCARSITTVVGCAMDYWGQGTSVTVSSTRIQNPDPAVYQLRDSKSSDKSVCLFTDFDSQTNVSQSKDSDVYITDKCVLDMRSMDFKSNSAVAWSNKSDFACANAFNNSIIPEDTFFPSSDVPCDVKLVEKSFETDTNLNFQNLSVIGFRILLLKVAGFNLLMTLRLWSSRAKRSGSGVKQTLNFDLLKLAGDVESNPGPSRGHMTEYKPTVRLATRDDVPRAVRTLAAAFADYPATRHTVDPDRHIERVTELQELFLTRVGLDIGKVWVADDGAAVAVWTTPESVEAGAVFAEIGPRMAELSGSRLAAQQQMEGLLAPHRPKEPAWFLATVGVSPDHQGKGLGSAVVLPGVEAAERAGVPAFLETSAPRNLPFYERLGFTVTADVEVPEGPRTWCMTRKPGA
As for B4, the “GFP induction / activity” value in the assay with RAJI cells, in the assay with SKOV-3 cells (co-culture with SKOV-3 cells) and in the assay on Nalm6 cells was “robust activity” each time.

(Values after patent publication US20230212319A1, “NOVEL ANTIGEN BINDING DOMAINS AND SYNTHETIC ANTIGEN RECEPTORS INCORPORATING THE SAME” (University of Southern California, priority 2020, published 2023).)
